Data taken from patent US20080014191A1.

Biological target: wild-type cystic fibrosis transmembrane conductance regulator (CFTR) (Homo sapiens (Human)) (UniProt P13569)
Assay: CFTR co-IP, MudPIT MS; BHK wt

Sequence of wild-type cystic fibrosis transmembrane conductance regulator (CFTR) (Homo sapiens (Human)) (P13569 whole entry): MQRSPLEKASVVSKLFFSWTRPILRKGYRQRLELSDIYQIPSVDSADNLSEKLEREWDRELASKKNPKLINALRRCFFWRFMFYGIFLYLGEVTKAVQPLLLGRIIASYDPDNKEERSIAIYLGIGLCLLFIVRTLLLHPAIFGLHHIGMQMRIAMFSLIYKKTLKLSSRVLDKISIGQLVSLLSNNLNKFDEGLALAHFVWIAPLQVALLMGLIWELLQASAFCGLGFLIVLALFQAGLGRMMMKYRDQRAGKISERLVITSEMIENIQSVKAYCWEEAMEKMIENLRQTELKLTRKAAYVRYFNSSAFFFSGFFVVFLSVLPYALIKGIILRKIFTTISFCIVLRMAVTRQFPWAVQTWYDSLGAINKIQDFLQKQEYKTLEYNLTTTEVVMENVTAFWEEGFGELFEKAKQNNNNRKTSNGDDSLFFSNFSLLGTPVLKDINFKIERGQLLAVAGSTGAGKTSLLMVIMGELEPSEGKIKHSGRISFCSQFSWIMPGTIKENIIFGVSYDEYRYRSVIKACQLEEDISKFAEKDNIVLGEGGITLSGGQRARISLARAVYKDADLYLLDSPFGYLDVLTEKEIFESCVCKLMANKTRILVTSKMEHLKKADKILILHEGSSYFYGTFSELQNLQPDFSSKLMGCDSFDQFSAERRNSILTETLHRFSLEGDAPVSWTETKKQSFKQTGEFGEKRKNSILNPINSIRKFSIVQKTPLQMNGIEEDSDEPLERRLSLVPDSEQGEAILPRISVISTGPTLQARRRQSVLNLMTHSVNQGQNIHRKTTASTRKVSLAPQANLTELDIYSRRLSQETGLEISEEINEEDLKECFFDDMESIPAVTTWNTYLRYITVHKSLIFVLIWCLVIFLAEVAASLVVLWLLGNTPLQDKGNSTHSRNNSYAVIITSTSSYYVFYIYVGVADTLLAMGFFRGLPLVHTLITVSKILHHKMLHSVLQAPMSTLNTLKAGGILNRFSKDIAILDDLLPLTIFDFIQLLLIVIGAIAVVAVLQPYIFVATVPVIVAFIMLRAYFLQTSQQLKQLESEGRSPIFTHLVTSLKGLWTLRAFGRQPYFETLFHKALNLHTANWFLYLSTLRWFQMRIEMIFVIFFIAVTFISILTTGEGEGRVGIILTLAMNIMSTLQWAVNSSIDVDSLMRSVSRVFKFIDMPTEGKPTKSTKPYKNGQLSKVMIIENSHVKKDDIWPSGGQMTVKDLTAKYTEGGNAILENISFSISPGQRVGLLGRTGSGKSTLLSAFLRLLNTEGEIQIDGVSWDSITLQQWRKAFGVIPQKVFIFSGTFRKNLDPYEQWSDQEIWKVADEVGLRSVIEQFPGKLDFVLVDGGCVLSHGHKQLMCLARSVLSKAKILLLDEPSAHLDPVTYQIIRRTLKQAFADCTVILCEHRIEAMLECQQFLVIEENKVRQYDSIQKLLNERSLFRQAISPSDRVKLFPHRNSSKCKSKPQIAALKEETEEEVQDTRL

B1: Calnexin (protein, UniProt P27824 21-592, looked up)
chain: HDGHDDDVIDIEDDLDDVIEEVEDSKPDTTAPPSSPKVTYKAPVPTGEVYFADSFDRGTLSGWILSKAKKDDTDDEIAKYDGKWEVEEMKESKLPGDKGLVLMSRAKHHAISAKLNKPFLFDTKPLIVQYEVNFQNGIECGGAYVKLLSKTPELNLDQFHDKTPYTIMFGPDKCGEDYKLHFIFRHKNPKTGIYEEKHAKRPDADLKTYFTDKKTHLYTLILNPDNSFEILVDQSVVNSGNLLNDMTPPVNPSREIEDPEDRKPEDWDERPKIPDPEAVKPDDWDEDAPAKIPDEEATKPEGWLDDEPEYVPDPDAEKPEDWDEDMDGEWEAPQIANPRCESAPGCGVWQRPVIDNPNYKGKWKPPMIDNPSYQGIWKPRKIPNPDFFEDLEPFRMTPFSAIGLELWSMTSDIFFDNFIICADRRIVDDWANDGWGLKKAADGAAEPGVVGQMIEAAEERPWLWVVYILTVALPVFLVILFCCSGKKQTSGMEYKKTDAPQPDVKEEEEEKEEEKDKGDEEEEGEEKLEEKQKSDAEEDGGTVSQEEEDRKPKAEEDEILNRSPRNRKPRRE
% sequence coverage: 10%
total spectra: 7 spectra
unique spectra: 4 spectra
